# Assay results from doi:10.1101/2020.04.23.057265 (bioRxiv, 2020).
# B1: SARS-CoV nsp12 polymerase subunit (enzyme)
# chain: SADASTFLNRVCGVSAARLTPCGTGTSTDVVYRAFDIYNEKVAGFAKFLKTNCCRFQEKDEEGNLLDSYFVVKRHTMSNYQHEETIYNLVKDCPAVAVHDFFKFRVDGDMVPHISRQRLTKYTMADLVYALRHFDEGNCDTLKEILVTYNCCDDDYFNKKDWYDFVENPDILRVYANLGERVRQSLLKTVQFCDAMRDAGIVGVLTLDNQDLNGNWYDFGDFVQVAPGCGVPIVDSYYSLLMPILTLTRALAAESHMDADLAKPLIKWDLLKYDFTEERLCLFDRYFKYWDQTYHPNCINCLDDRCILHCANFNVLFSTVFPPTSFGPLVRKIFVDGVPFVVSTGYHFRELGVVHNQDVNLHSSRLSFKELLVYAADPAMHAASGNLLLDKRTTCFSVAALTNNVAFQTVKPGNFNKDFYDFAVSKGFFKEGSSVELKHFFFAQDGNAAISDYDYYRYNLPTMCDIRQLLFVVEVVDKYFDCYDGGCINANQVIVNNLDKSAGFPFNKWGKARLYYDSMSYEDQDALFAYTKRNVIPTITQMNLKYAISAKNRARTVAGVSICSTMTNRQFHQKLLKSIAATRGATVVIGTSKFYGGWHNMLKTVYSDVETPHLMGWDYPKCDRAMPNMLRIMASLVLARKHNTCCNLSHRFYRLANECAQVLSEMVMCGGSLYVKPGGTSSGDATTAYANSVFNICQAVTANVNALLSTDGNKIADKYVRNLQHRLYECLYRNRDVDHEFVDEFYAYLRKHFSMMILSDDAVVCYNSNYAAQGLVASIKNFKAVLYYQNNVFMSEAKCWTETDLTKGPHEFCSQHTMLVKQGDDYVYLPYPDPSRILGAGCFVDDIVKTDGTLMIERFVSLAIDAYPLTKHPNQEYADVFHLYLQYIRKLHDELTGHMLDMYSVMLTNDNTSRYWEPEFYEAMYTPHTVLQ
# Target: SARS-CoV nsp7L8 fusion protein (SARS-CoV, UniProt P0C6X7)
# Assay: SPR
binder,measurement,value
B1,binding result,binds
